US20180134781A1 (Regeneron, published 2018)

How the values were obtained:
[1] = biological target: T1, monkey ANGPTL8 expressed with C-terminal mouse IgG2a Fc tag (cynomolgus monkey); experiment: BLI (Octet HTX), MfANGPTL8-mFc captured on AMC sensor
T1 construct: also called MfANGPTL8-mFc; mfANGPTL8-mFc
T1 chain: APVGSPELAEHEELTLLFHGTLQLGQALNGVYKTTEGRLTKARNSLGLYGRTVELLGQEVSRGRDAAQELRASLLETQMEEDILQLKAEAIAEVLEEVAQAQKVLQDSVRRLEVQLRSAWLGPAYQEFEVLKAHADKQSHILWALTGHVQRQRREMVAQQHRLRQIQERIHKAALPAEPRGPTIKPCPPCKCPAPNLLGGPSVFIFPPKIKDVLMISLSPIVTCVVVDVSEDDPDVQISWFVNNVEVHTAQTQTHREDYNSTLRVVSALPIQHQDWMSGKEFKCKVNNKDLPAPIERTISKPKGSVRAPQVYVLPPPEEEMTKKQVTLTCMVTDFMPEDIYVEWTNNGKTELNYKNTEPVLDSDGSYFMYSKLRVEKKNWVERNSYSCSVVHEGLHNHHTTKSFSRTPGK
Method: (§1) Binding of ANGPTL8 antibodies to human and monkey ANGPTL8 proteins was investigated using Bio-layer Interferometry with an Octet HTX biosensor platform (ForteBio, A Division of Pall Life Sciences). All experiments were performed at 25° C. in 10 mM HEPES pH 7.4, 150 mM NaCl, 0.05% v/v Surfactant Tween-20, and 1 mg/ml BSA with the reaction multiwell plate agitated at 1000 rpm. Approximately 1.6 nm of human ANGPTL8 produced with a C-terminal mouse IgG2a Fc tag (hANGPTL8-mFc; SEQ ID NO: 340) or cynomolgus monkey ANGPTL8 produced with a C-terminal mouse IgG2a Fc tag (MfANGPTL8-mFc; SEQ ID NO: 341) was captured onto anti-mFc (AMC) Octet biosensors by submerging the sensors into wells containing 10 μg/mL of each protein for 4 minutes. Under the same conditions a negative control protein with the same mFc tag (hLDLR-mFc) was also coupled to the AMC sensor. All four sensors, […] and one blank, were then submerged into wells containing 100 nM of different ANGPTL8 monoclonal antibodies or an isotype control for 4 minutes.

[2] = biological target: T2, human ANGPTL8 expressed with C-terminal mouse IgG2a Fc tag (human); experiment: BLI (Octet HTX), hANGPTL8-mFc captured on AMC sensor
T2 construct: also called hANGPTL8-mFc; hANGPTL8.mFc
T2 chain: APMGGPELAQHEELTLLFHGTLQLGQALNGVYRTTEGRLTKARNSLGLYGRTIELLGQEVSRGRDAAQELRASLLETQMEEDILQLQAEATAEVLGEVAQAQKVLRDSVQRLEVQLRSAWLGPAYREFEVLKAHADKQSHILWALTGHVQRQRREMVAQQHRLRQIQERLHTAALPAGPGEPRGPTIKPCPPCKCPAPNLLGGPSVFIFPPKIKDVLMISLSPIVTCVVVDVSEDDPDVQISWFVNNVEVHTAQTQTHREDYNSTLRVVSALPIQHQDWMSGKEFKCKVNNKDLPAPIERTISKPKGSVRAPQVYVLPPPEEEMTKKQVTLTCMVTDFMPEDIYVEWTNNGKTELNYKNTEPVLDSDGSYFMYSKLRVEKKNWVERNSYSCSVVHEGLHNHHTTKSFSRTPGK
Method: as §1

[3] = biological target: T3, hLDLR-mFc (negative control protein with the same mFc tag) (human, UniProt P01130 22-788); experiment: BLI (Octet HTX), hLDLR-mFc captured on AMC sensor
T3 construct: also called Irrelevant control; not shown: mFc tag ('the same mFc tag', mouse IgG2a Fc)
T3 sequence (P01130 22-788): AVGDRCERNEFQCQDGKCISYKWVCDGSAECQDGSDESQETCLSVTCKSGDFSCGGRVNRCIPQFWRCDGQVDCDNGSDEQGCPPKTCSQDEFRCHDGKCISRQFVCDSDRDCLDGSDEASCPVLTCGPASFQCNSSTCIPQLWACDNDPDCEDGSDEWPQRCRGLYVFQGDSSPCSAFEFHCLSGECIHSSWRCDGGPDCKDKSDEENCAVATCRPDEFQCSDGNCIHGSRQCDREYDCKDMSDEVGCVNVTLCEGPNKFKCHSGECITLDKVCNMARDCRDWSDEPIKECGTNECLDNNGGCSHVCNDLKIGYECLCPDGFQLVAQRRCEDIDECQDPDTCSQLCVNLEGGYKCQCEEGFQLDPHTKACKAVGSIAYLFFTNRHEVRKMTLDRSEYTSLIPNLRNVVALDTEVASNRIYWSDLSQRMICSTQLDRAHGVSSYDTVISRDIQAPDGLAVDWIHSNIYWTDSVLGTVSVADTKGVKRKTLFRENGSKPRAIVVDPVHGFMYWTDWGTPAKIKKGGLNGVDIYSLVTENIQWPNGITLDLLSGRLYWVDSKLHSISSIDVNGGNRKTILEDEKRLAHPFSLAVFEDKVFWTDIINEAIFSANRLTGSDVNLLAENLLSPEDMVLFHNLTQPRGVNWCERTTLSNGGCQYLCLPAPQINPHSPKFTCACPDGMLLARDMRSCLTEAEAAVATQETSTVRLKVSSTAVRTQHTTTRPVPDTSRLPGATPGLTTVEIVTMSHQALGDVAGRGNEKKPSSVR
Method: as §1

B1: H4H15316P (antibody, human IgG4, V domains shown)
VH: EVQLVESGGGLVQPGRSLRLSCAASGFIFDDYDMHWVRQAPGKGLEWVSGISWNSGSKGYADSVKGRFTISRDNAKNSLYLQMNSLRAEDTALYYCTKGPWDYFDYWGQGTLVTVSS
VL: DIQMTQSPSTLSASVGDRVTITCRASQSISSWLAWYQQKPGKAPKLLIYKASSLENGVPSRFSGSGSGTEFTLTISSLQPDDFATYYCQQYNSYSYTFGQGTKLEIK
notes: human IgG4 Fc (H4H prefix)
[1]
  binding result: no binding (tested: background 0.03 nm at 100 nM mAb)
[2]
  binding result: no binding (tested: background 0.03 nm at 100 nM mAb)
[3]
  binding result: no binding (tested: 0.03 nm at 100 nM mAb)
